# Experimental data published in patent US20260242419A1, “A CYCLIC PEPTIDE FOR TRAPPING INTERLEUKIN-1 BETA” (Merck Sharp & Dohme LLC, priority 2023, published 2026).
# Non-standard residues stand in square brackets, D forms with d. Phe(4-(cis-4-COOH-cHex)) = N[C@@H](Cc1ccc([C@H]2CC[C@@H](C(=O)O)CC2)cc1)C(=O)O; Trp(βS-Me,4-F) = C[C@@H](c1c[nH]c2cccc(F)c12)[C@H](N)C(=O)O; Ala(1-bicyclo(1.1.1)pentyl) = N[C@@H](CC12CC(C1)C2)C(=O)O; dPro(4R-Bzl(4-F)) = O=C(O)[C@H]1C[C@@H](Cc2ccc(F)cc2)CN1; Ala(pyrimidin-5-yl) = N[C@@H](Cc1cncnc1)C(=O)O; Phe(4-COOH) = N[C@@H](Cc1ccc(C(=O)O)cc1)C(=O)O; Pro(cis-4-F) = O=C(O)[C@@H]1C[C@H](F)CN1; αMeK = C[C@](N)(CCCCN)C(=O)O; αMeS = C[C@](N)(CO)C(=O)O; Api = NC1(C(=O)O)CCNCC1; Dab = NCC[C@H](N)C(=O)O; Aib = CC(C)(N)C(=O)O
# Target: Recombinant human IL-1β (BioLegend 579404) (human, UniProt P01584 117-269)
# Test: cell-based or functional assay
row,Binder,MRC5 IC50
1,"cyclo([Phe(4-(cis-4-COOH-cHex))][Ala(1-bicyclo(1.1.1)pentyl)][Phe(4-COOH)]G[Pro(cis-4-F)][Trp(βS-Me,4-F)][αMeS]EW[Aib][Ala(pyrimidin-5-yl)]Q[Dab]G[dPro(4R-Bzl(4-F))]) (SMILES C[C@@H](c1c[nH]c2cccc(F)c12)[C@@H]1NC(=O)[C@@H]2C[C@H](F)CN2C(=O)CNC(=O)[C@H](Cc2ccc(C(=O)O)cc2)NC(=O)[C@H](CC23CC(C2)C3)NC(=O)[C@H](Cc2ccc([C@H]3CC[C@@H](C(=O)O)CC3)cc2)NC(=O)[C@H]2C[C@@H](Cc3ccc(F)cc3)CN2C(=O)CNC(=O)[C@H](CCN)NC(=O)[C@H](CCC(N)=O)NC(=O)[C@H](Cc2cncnc2)NC(=O)C(C)(C)NC(=O)[C@H](Cc2c[nH]c3ccccc23)NC(=O)[C@H](CCC(=O)O)NC(=O)[C@](C)(CO)NC1=O) [SEQ ID NO: 103]",60 pM
2,"cyclo([Phe(4-(cis-4-COOH-cHex))][Ala(1-bicyclo(1.1.1)pentyl)][Phe(4-COOH)]G[Pro(cis-4-F)][Trp(βS-Me,4-F)][αMeS]EW[αMeK][Ala(pyrimidin-5-yl)]Q[Dab]G[dPro(4R-Bzl(4-F))]) (SMILES C[C@@H](c1c[nH]c2cccc(F)c12)[C@@H]1NC(=O)[C@@H]2C[C@H](F)CN2C(=O)CNC(=O)[C@H](Cc2ccc(C(=O)O)cc2)NC(=O)[C@H](CC23CC(C2)C3)NC(=O)[C@H](Cc2ccc([C@H]3CC[C@@H](C(=O)O)CC3)cc2)NC(=O)[C@H]2C[C@@H](Cc3ccc(F)cc3)CN2C(=O)CNC(=O)[C@H](CCN)NC(=O)[C@H](CCC(N)=O)NC(=O)[C@H](Cc2cncnc2)NC(=O)[C@](C)(CCCCN)NC(=O)[C@H](Cc2c[nH]c3ccccc23)NC(=O)[C@H](CCC(=O)O)NC(=O)[C@](C)(CO)NC1=O) [SEQ ID NO: 104]",85 pM
3,"cyclo([Phe(4-(cis-4-COOH-cHex))][Ala(1-bicyclo(1.1.1)pentyl)][Phe(4-COOH)]G[Pro(cis-4-F)][Trp(βS-Me,4-F)][Aib]EW[Api]SQ[Dab]G[dPro(4R-Bzl(4-F))]) (SMILES C[C@@H](c1c[nH]c2cccc(F)c12)[C@@H]1NC(=O)[C@@H]2C[C@H](F)CN2C(=O)CNC(=O)[C@H](Cc2ccc(C(=O)O)cc2)NC(=O)[C@H](CC23CC(C2)C3)NC(=O)[C@H](Cc2ccc([C@H]3CC[C@@H](C(=O)O)CC3)cc2)NC(=O)[C@H]2C[C@@H](Cc3ccc(F)cc3)CN2C(=O)CNC(=O)[C@H](CCN)NC(=O)[C@H](CCC(N)=O)NC(=O)[C@H](CO)NC(=O)C2(CCNCC2)NC(=O)[C@H](Cc2c[nH]c3ccccc23)NC(=O)[C@H](CCC(=O)O)NC(=O)C(C)(C)NC1=O) [SEQ ID NO: 105]",83 pM
4,"cyclo([Phe(4-(cis-4-COOH-cHex))][Ala(1-bicyclo(1.1.1)pentyl)][Phe(4-COOH)]G[Pro(cis-4-F)][Trp(βS-Me,4-F)][Aib]SW[Aib]SQ[Dab]G[dPro(4R-Bzl(4-F))]) (SMILES C[C@@H](c1c[nH]c2cccc(F)c12)[C@@H]1NC(=O)[C@@H]2C[C@H](F)CN2C(=O)CNC(=O)[C@H](Cc2ccc(C(=O)O)cc2)NC(=O)[C@H](CC23CC(C2)C3)NC(=O)[C@H](Cc2ccc([C@H]3CC[C@@H](C(=O)O)CC3)cc2)NC(=O)[C@H]2C[C@@H](Cc3ccc(F)cc3)CN2C(=O)CNC(=O)[C@H](CCN)NC(=O)[C@H](CCC(N)=O)NC(=O)[C@H](CO)NC(=O)C(C)(C)NC(=O)[C@H](Cc2c[nH]c3ccccc23)NC(=O)[C@H](CO)NC(=O)C(C)(C)NC1=O) [SEQ ID NO: 106]",31 pM
